{
  "source": "patent US20250215101A1",
  "about": "“DR5 Agonist and PLK1 Inhibitor or CDK Inhibitor Combination Therapy” (Inhibrx Biosciences, Inc., priority 2022, published 2025)",
  "test_in_all_cases": "Cytotoxicity assay, colorectal cancer cell line panel, onvansertib +/- 1 nM INBRX-109",
  "type_in_all_cases": "cell-based",
  "key": {"SK-CO-1": {"test_system": "SK-CO-1", "details": "SK-CO-1; 1 nM INBRX-109 only", "experimental": "(§1) Monolayer cultures of each cell line were harvested for compound screening as detailed below.\n(§2) Also on day 2, test and control articles were added.\n(§3) On day 4, viability measurements were taken. […] Data was graphed in GraphPad Prism 9.\n(§4) The results for a panel of colorectal cancer cell lines are shown in Table 3 and FIGS. 4-6, and the results for a panel of pancreatic cell lines are shown in Table 4 and FIGS. 7 and 8."}, "LS 180": {"test_system": "LS 180", "details": "LS 180; 1 nM INBRX-109 only", "experimental": "as §1, §2, §3, §4"}, "HCT-15": {"test_system": "HCT-15", "details": "HCT-15; 1 nM INBRX-109 only", "experimental": "as §1, §2, §3, §4"}, "SW-1116": {"test_system": "SW-1116", "details": "SW-1116; 1 nM INBRX-109 only", "experimental": "as §1, §2, §3, §4"}, "NCI-H747": {"test_system": "NCI-H747", "details": "NCI-H747; 1 nM INBRX-109 only", "experimental": "as §1, §2, §3, §4"}, "SNU-C5": {"test_system": "SNU-C5", "details": "1 nM INBRX-109 only", "experimental": "as §1, §2, §3, §4"}, "SW620": {"test_system": "SW620", "details": "SW620; 1 nM INBRX-109 only", "experimental": "as §1, §2, §3, §4"}, "LS 513": {"test_system": "LS 513", "details": "LS 513; 1 nM INBRX-109 only", "experimental": "as §1, §2, §3, §4"}, "SW-948": {"test_system": "SW-948", "details": "SW-948; 1 nM INBRX-109 only", "experimental": "as §1, §2, §3, §4"}, "SW-403": {"test_system": "SW-403", "details": "SW-403; 1 nM INBRX-109 only", "experimental": "as §1, §2, §3, §4"}, "LoVo": {"test_system": "LoVo", "details": "1 nM INBRX-109 only", "experimental": "as §1, §2, §3, §4"}, "HT-55": {"test_system": "HT-55", "details": "HT-55; 1 nM INBRX-109 only", "experimental": "as §1, §2, §3, §4"}, "SW-480": {"test_system": "SW-480", "details": "SW-480; 1 nM INBRX-109 only", "experimental": "as §1, §2, §3, §4"}, "SW-837": {"test_system": "SW-837", "details": "SW-837; 1 nM INBRX-109 only", "experimental": "as §1, §2, §3, §4"}, "LS 123": {"test_system": "LS 123", "details": "LS 123; 1 nM INBRX-109 only", "experimental": "as §1, §2, §3, §4"}, "RKO": {"test_system": "RKO", "details": "1 nM INBRX-109 only", "experimental": "as §1, §2, §3, §4"}, "SW-1463": {"test_system": "SW-1463", "details": "SW-1463; 1 nM INBRX-109 only", "experimental": "as §1, §2, §3, §4"}, "HCT-8": {"test_system": "HCT-8", "details": "HCT-8; 1 nM INBRX-109 only", "experimental": "as §1, §2, §3, §4"}, "SNU-81": {"test_system": "SNU-81", "details": "1 nM INBRX-109 only", "experimental": "as §1, §2, §3, §4"}, "T84": {"test_system": "T84", "details": "T84; 1 nM INBRX-109 only", "experimental": "as §1, §2, §3, §4"}, "LS174T": {"test_system": "LS174T", "details": "1 nM INBRX-109 only", "experimental": "as §1, §2, §3, §4"}, "DLD-1": {"test_system": "DLD-1", "details": "DLD-1; 1 nM INBRX-109 only", "experimental": "as §1, §2, §3, §4"}, "COLO320DM": {"test_system": "COLO320DM", "details": "1 nM INBRX-109 only", "experimental": "as §1, §2, §3, §4"}, "HT-29": {"test_system": "HT-29", "details": "HT-29; 1 nM INBRX-109 only", "experimental": "as §1, §2, §3, §4"}, "SW-48": {"test_system": "SW-48", "details": "SW-48; 1 nM INBRX-109 only", "experimental": "as §1, §2, §3, §4"}, "NCI-H716": {"test_system": "NCI-H716", "details": "NCI-H716; 1 nM INBRX-109 only", "experimental": "as §1, §2, §3, §4"}, "Hutu 80": {"test_system": "Hutu 80", "details": "Hutu 80; 1 nM INBRX-109 only", "experimental": "as §1, §2, §3, §4"}, "HCT 116": {"test_system": "HCT 116", "details": "HCT 116; 1 nM INBRX-109 only", "experimental": "as §1, §2, §3, §4"}},
  "data": [
    {"molecule": "INBRX-109: DR5-binding polypeptide consisting of SEQ ID NO: 7 (two VHH domains and an Fc region); DR5 agonist (protein, INBRX-109, DR5 agonist) EVQLLESGGGEVQPGGSLRLSCAASGLTFPNYGMGWFRQAPGKEREFVSAIYWSGGTVYYAESVKGRFTISRDNAKNTLYLQMSSLRAEDTAVYYCAVTIRGAATQTWKYDYWGQGTLVTVKPGGSGGSEVQLLESGGGEVQPGGSLRLSCAASGLTFPNYGMGWFRQAPGKEREFVSAIYWSGGTVYYAESVKGRFTISRDNAKNTLYLQMSSLRAEDTAVYYCAVTIRGAATQTWKYDYWGQGTLVTVKPGGGGDKTHTCPPCPAPGGPSVFLFPPKPKDTLMISRTPEVTCVVVDVSHEDPEVKFNWYVDGVEVHNAKTKPREEQYNSTYRVVSVLTVLHQDWLNGKEYKCKVSNKALPAPIEKTISKAKGQPREPQVYTLPPSRDELTKNQVSLTCLVKGFYPSDIAVEWESNGQPENNYKTTPPVLDSDGSFFLYSKLTVDKSRWQQGNVFSCSVMHEALHNHYTQKSLSLSPGK", "values": [
      {"measurement": "Max Cytotox at 1 nM", "setting": "SK-CO-1", "value": 92.2, "unit": "%"},
      {"measurement": "Max Cytotox at 1 nM", "setting": "LS 180", "value": 27.2, "unit": "%"},
      {"measurement": "Max Cytotox at 1 nM", "setting": "HCT-15", "value": 49.6, "unit": "%"},
      {"measurement": "Max Cytotox at 1 nM", "setting": "SW-1116", "value": 15.3, "unit": "%"},
      {"measurement": "Max Cytotox at 1 nM", "setting": "NCI-H747", "value": 13.4, "unit": "%"},
      {"measurement": "Max Cytotox at 1 nM", "setting": "SNU-C5", "value": 48.6, "unit": "%"},
      {"measurement": "Max Cytotox at 1 nM", "setting": "SW620", "value": 19.4, "unit": "%"},
      {"measurement": "Max Cytotox at 1 nM", "setting": "LS 513", "value": 92.3, "unit": "%"},
      {"measurement": "Max Cytotox at 1 nM", "setting": "SW-948", "value": 98.5, "unit": "%"},
      {"measurement": "Max Cytotox at 1 nM", "setting": "SW-403", "value": 15.7, "unit": "%"},
      {"measurement": "Max Cytotox at 1 nM", "setting": "LoVo", "value": 16.2, "unit": "%"},
      {"measurement": "Max Cytotox at 1 nM", "setting": "HT-55", "value": 48.4, "unit": "%"},
      {"measurement": "Max Cytotox at 1 nM", "setting": "SW-480", "value": 19.7, "unit": "%"},
      {"measurement": "Max Cytotox at 1 nM", "setting": "SW-837", "value": 7.1, "unit": "%"},
      {"measurement": "Max Cytotox at 1 nM", "setting": "LS 123", "value": 3.1, "unit": "%"},
      {"measurement": "Max Cytotox at 1 nM", "setting": "RKO", "value": 3.6, "unit": "%"},
      {"measurement": "Max Cytotox at 1 nM", "setting": "SW-1463", "value": 28.5, "unit": "%"},
      {"measurement": "Max Cytotox at 1 nM", "setting": "HCT-8", "value": 6.7, "unit": "%"},
      {"measurement": "Max Cytotox at 1 nM", "setting": "SNU-81", "value": 82.1, "unit": "%"},
      {"measurement": "Max Cytotox at 1 nM", "setting": "T84", "value": 9.1, "unit": "%"},
      {"measurement": "Max Cytotox at 1 nM", "setting": "LS174T", "value": 41.2, "unit": "%"},
      {"measurement": "Max Cytotox at 1 nM", "setting": "DLD-1", "value": 41.9, "unit": "%"},
      {"measurement": "Max Cytotox at 1 nM", "setting": "COLO320DM", "value": 4.7, "unit": "%"},
      {"measurement": "Max Cytotox at 1 nM", "setting": "HT-29", "value": 19.9, "unit": "%"},
      {"measurement": "Max Cytotox at 1 nM", "setting": "SW-48", "value": 93.9, "unit": "%"},
      {"measurement": "Max Cytotox at 1 nM", "setting": "NCI-H716", "value": 9.2, "unit": "%"},
      {"measurement": "Max Cytotox at 1 nM", "setting": "Hutu 80", "value": 4.0, "unit": "%"},
      {"measurement": "Max Cytotox at 1 nM", "setting": "HCT 116", "value": 54.4, "unit": "%"}
    ]}
  ]
}
